Measured values taken from patent US20040219159, “Methods and compositions for therapeutic intervention in infectious disease” (published 2004).

Target: T1, HspR (Rv0353) (Mycobacterium tuberculosis, UniProt O06302 O06302:1-126)
T1 sequence: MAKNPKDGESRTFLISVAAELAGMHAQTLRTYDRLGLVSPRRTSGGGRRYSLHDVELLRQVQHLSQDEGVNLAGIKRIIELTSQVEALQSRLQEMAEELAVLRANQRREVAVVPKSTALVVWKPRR
Assay: EMSA
Conditions: tags: His-tag (pQE30, expressed in E. coli SG13009, renatured from urea); label: 32P; annealed 40-mers with short 5' overhangs

B1: HAIR2 oligonucleotide DNAKIR-F/DNAKIR-R (dsDNA)
DNA 1: GCTCAGTAAGTTGAGTGCATCAGGCTCAGCTCTGAATTGA
DNA 2: GTCAATTCAGAGCTGAGCCTGATGCACTCAACTTACTGAG
binding result: binds
